In article PMC5159607 one finds Km data, which are given here for one protein.

Substrate in the data set: Oc1ccc2c(c1)OC[C@@]1(O)c3ccc(O)cc3O[C@@H]21
Kind of data set: HPLC prenyltransferase assay, recombinant yeast microsomes, Lineweaver-Burk. Format: biochemical, Glycine max. To be noted: 400 µM DMAPP, divalent cation required (Mg2+ preferred), 30 °C, 15 min.

B1: G2DT (PT7; ΔTP-PT7) (Glycine max) (protein)
chain: YKKKTQIECNILRSQQSSLNHHYKRIEGGATYQDCDKKYVVKAIPEPTFDSEPCASNPENVVDSAKKILDVFYHFCYPYSMIAIILCAISSSLLAVEKPSDISSSFLIGVLQALVPHLFVAVFANVVNQVFDYEIDKINKPYLPLASGQLSFTTAVFIAASLLIMSFWLSLVIGSWPLIWNVVLTSSVWNVYSINVPLLRWKRHPLLATICTISVWAFILPITFFLHMQTFVLKRPIVFPRSLIFYVVFMIFYSLGMALSKDISDVKGDKAYGIDTLAIRLGQKWVFWICIILFEMAFGVALLAGATSSYLWIKIVTGLGHAILASILLYQAKSIYLSNKVSTISFYMLIWKLLYAAYFLMALIR
On to B1, for which the Km (as a rule, the concentration of substrate that gives half-maximal velocity) came to 183 µM.
